B1: SRC kinase associated phosphoprotein 1 (SKAP1), wild type, N2-fused [human] / FYN (isoform without exon 7), C1-fused [not stated] (parent complex)
chain 1: MQAAALPEEIRWLLEDAEEFLAEGLRNENLSAVARDHRDHILRGFQQIKARYYWDFQPQGGDIGQDSSDDNHSGTLGLSLTSDAPFLSDYQDEGMEDIVKGAQELDNVIKQGYLEKKSKDHSFFGSEWQKRWCVVSRGLFYYYANEKSKQPKGTFLIKGYGVRMAPHLRRDSKKESCFELTSQDRRSYEFTATSPAEARDWVDQISFLLKDLSSLTIPYEEDEEEEEKEETYDDIDGFDSPSCGSQCRPTILPGSVGIKEPTEEKEEEDIYEVLPDEEHDLEEDESGTRRKGVDYASYYQGLWDCHGDQPDELSFQRGDLIRILSKEYNMYGWWVGELNSLVGIVPKEYLTTAFEVEER
chain 2: not shown
B2: SRC kinase associated phosphoprotein 1 (SKAP1), wild type, N2-fused [human] / BLK, C1-fused [not stated] (parent complex)
chain 1: B1 chain 1
chain 2: not shown
B3: SRC kinase associated phosphoprotein 1 (SKAP1), wild type, N2-fused [human] / FRK, C1-fused [not stated] (parent complex)
chain 1: B1 chain 1
chain 2: MSNICQRLWEYLEPYLPCLSTEADKSTVIENPGALCSPQSQRHGHYFVALFDYQARTAEDLSFRAGDKLQVLDTLHEGWWFARHLEKRRDGSSQQLQGYIPSNYVAEDRSLQAEPWFFGAIGRSDAEKQLLYSENKTGSFLIRESESQKGEFSLSVLDGAVVKHYRIKRLDEGGFFLTRRRIFSTLNEFVSHYTKTSDGLCVKLGKPCLKIQVPAPFDLSYKTVDQWEIDRNSIQLLKRLGSGQFGEVWEGLWNNTTPVAVKTLKPGSMDPNDFLREAQIMKNLRHPKLIQLYAVCTLEDPIYIITELMRHGSLQEYLQNDTGSKIHLTQQVDMAAQVASGMAYLESRNYIHRDLAARNVLVGEHNIYKVADFGLARVFKVDNEDIYESRHEIKLPVKWTAPEAIRSNKFSIKSDVWSFGILLYEIITYGKMPYSGMTGAQVIQMLAQNYRLPQPSNCPQQFYNIMLECWNAEPKERPTFETLRWKLEDYFETDSSYSDANNFIR
B4: SRC kinase associated phosphoprotein 1 (SKAP1), wild type, N2-fused [human] / SRMS, C1-fused [not stated] (parent complex)
chain 1: B1 chain 1
chain 2: MEPFLRRRLAFLSFFWDKIWPAGGEPDHGTPGSLDPNTDPVPTLPAEPCSPFPQLFLALYDFTARCGGELSVRRGDRLCALEEGGGYIFARRLSGQPSAGLVPITHVAKASPETLSDQPWYFSGVSRTQAQQLLLSPPNEPGAFLIRPSESSLGGYSLSVRAQAKVCHYRVSMAADGSLYLQKGRLFPGLEELLTYYKANWKLIQNPLLQPCMPQKAPRQDVWERPHSEFALGRKLGEGYFGEVWEGLWLGSLPVAIKVIKSANMKLTDLAKEIQTLKGLRHERLIRLHAVCSGGEPVYIVTELMRKGNLQAFLGTPEGRALRLPPLLGFACQVAEGMSYLEEQRVVHRDLAARNVLVDDGLACKVADFGLARLLKDDIYSPSSSSKIPVKWTAPEAANYRVFSQKSDVWSFGVLLHEVFTYGQCPYEGMTNHETLQQIMRGYRLPRPAACPAEVYVLMLECWRSSPEERPSFATLREKLHAIHRCHP
B5: SRC kinase associated phosphoprotein 1 (SKAP1), wild type, N2-fused [human] / LYN, C1-fused [not stated] (parent complex)
chain 1: B1 chain 1
chain 2: MGCIKSKGKDSLSDDGVDLKTQPVRNTERTIYVRDPTSNKQQRPVPESQLLPGQRFQTKDPEEQGDIVVALYPYDGIHPDDLSFKKGEKMKVLEEHGEWWKAKSLLTKKEGFIPSNYVAKLNTLETEEWFFKDITRKDAERQLLAPGNSAGAFLIRESETLKGSFSLSVRDFDPVHGDVIKHYKIRSLDNGGYYISPRITFPCISDMIKHYQKQADGLCRRLEKACISPKPQKPWDKDAWEIPRESIKLVKRLGAGQFGEVWMGYYNNSTKVAVKTLKPGTMSVQAFLEEANLMKTLQHDKLVRLYAVVTREEPIYIITEYMAKGSLLDFLKSDEGGKVLLPKLIDFSAQIAEGMAYIERKNYIHRDLRAANVLVSESLMCKIADFGLARVIEDNEYTAREGAKFPIKWTAPEAINFGCFTIKSDVWSFGILLYEIVTYGKIPYPGRTNADVMTALSQGYRMPRVENCPDELYDIMKMCWKEKAEERPTFDYLQSVLDDFYTATEGQYQQQP

Variants of: B1
Assay: luciferase complementation assay (normalized luciferase ratio, NLR); HEK293T cells; one experiment; read off a plot

ratio to parent	Variant
~1.2	chain 1 W333K

Variants of: B2
Assay: as above

ratio to parent	Variant
~1.8	chain 1 W333K

Variants of: B3
Assay: as above

ratio to parent	Variant
~1.9	chain 1 MQAAALPEEIRWLLEDAEEFLAEGLRNENLSAVARDHRDHILRGFQQIKARYYWDFQPQGGDIGQDSSDDNHSGTLGLSLTSDAPFLSDYQDEGMEDIVKGAQELDNVIKQGYLEKKSKKHSFFGSEWQKRWCVVSRGLFYYYANEKSKQPKGTFLIKGYGVRMAPHLRRDSKKESCFELTSQDRRSYEFTATSPAEARDWVDQISFLLKDLSSLTIPYEEDEEEEEKEETYDDIDGFDSPSCGSQCRPTILPGSVGIKEPTEEKEEEDIYEVLPDEEHDLEEDESGTRRKGVDYASYYQGLWDCHGDQPDELSFQRGDLIRILSKEYNMYGWWVGELNSLVGIVPKEYLTTAFEVEER [chain 1 D120K]
~1.2	chain 1 MQAAALPEEIRWLLEDAEEFLAEGLRNENLSAVARDHRDHILRGFQQIKARYYWDFQPQGGDIGQDSSDDNHSGTLGLSLTSDAPFLSDYQDEGMEDIVKGAQELDNVIKQGYLEKKSKDHSFFGSEWQKRWCVVSRGLFYYYANEKSKQPKGTFLIKGYGVRMAPHLRRDSKKESCFELTSQDRRSYEFTATSPAEARDWVDQISFLLKDLSSLTIPYEEDEEEEEKEETYDDIDGFDSPSCGSQCRPTILPGSVGIKEPTEEKEEEDIYEVLPDEEHDLEEDESGTRRKGVDYASYYQGLWDCHGDQPDELSFQRGDLIRILSKEYNMYGKWVGELNSLVGIVPKEYLTTAFEVEER [chain 1 W333K]

Variants of: B4
Assay: as above

ratio to parent	Variant
~1.3	chain 1 MQAAALPEEIRWLLEDAEEFLAEGLRNENLSAVARDHRDHILRGFQQIKARYYWDFQPQGGDIGQDSSDDNHSGTLGLSLTSDAPFLSDYQDEGMEDIVKGAQELDNVIKQGYLEKKSKDHSFFGSEWQKRWCVVSRGLFYYYANEKSKQPKGTFLIKGYGVRMAPHLRRDSKKESCFELTSQDRRSYEFTATSPAEARDWVDQISFLLKDLSSLTIPYEEDEEEEEKEETYDDIDGFDSPSCGSQCRPTILPGSVGIKEPTEEKEEEDIYEVLPDEEHDLEEDESGTRRKGVDYASYYQGLWDCHGDQPDELSFQRGDLIRILSKEYNMYGKWVGELNSLVGIVPKEYLTTAFEVEER [chain 1 W333K]

Variants of: B5
Assay: as above

ratio to parent	Variant
~2	chain 1 W333K

From article PMC10939263 (2024)
